According to the DeepSol protein solubility set:

Assay: soluble on expression in E. coli; label from the status in PepcDB or PDB records

| Sequence | soluble on expression in E. coli |
| --- | --- |
| MKLTQLDLSHNNLSVIPTWALTYLHSLQILHLENNRIDVLRSNTFDETQLNNLQFLYLDNNQLRIIPNLAFNHLRLVVLMLANNRITEIQKMSLPQTLKFLVLRNNLLTQIPYVALNDLKTLQSIDLEGNNITHLMDTNEVTFESEMKVILRNNKVRRLDKHSFRSFRKIRELDISYNQIQTVEDSSFETVGHMQSLDLSYNRIAYLPRGMLKNFAKTLKTLKLAENMIHATPEALRDLRNLTHLNLNGNKLNRIDGDVLKGCTDTLVELFIANNYLEHIPHGVLSGMKQLEHLDISKNKIMSLKKPTSLLSITKEETSTVRRLNLAGNRINNMSDYLIFEHMPLLTYVDVSFNRIRFISPRVFEKLKNLESLFLQNNQLAHFPSLFRLDKLRHLMLDNNQIQKIDNFSLADLPKLQHLSLAGNQLDIITENMFGSSSSSELKSLNLAHNKIHSISSRSFSDLDNLQQLRLSHNNIRTITSMTFSNLRNLRYLDLSHNRIIKILPSALYQLPALDVLHLDHNNLNEIDRDAFRSFSDLQSLKLSHNAFRRFSCEFLGSISQVHQLDLSSNQINEIDIFCIARGIRKLSLASNSVEKINRKLLQDATELTSIDISHNGIIDVDSDAFCECRKLSHIKLSHNYIRNLWKGTRVCIPWISHLTTFCFFTKEHLERTISFSYIIVDSSQLTSFGNLSILSFANNKVDSIEDGAFENLLSLKILDLSNNPVTSWSPTAFRDLSHSISSINMANTGLFSMPKFSHRSIQSLNISCNKIYELSEKDLAPLTKVVALDISHNNLKQISSMAFEPLIHLKQLNVSANPITHLTNEHIQQLYKLYNIPDMARPYQISSILSNLPPLHTIYVDIKESALDRQFYTADTRLLRHLVVAGRNLTKIEVGAFATIRGFRVRIEIHNSSIEEFPSRIFDTLTGISILSLSLTDNKLTTFNPFQSTVAPAVNQHGTILHSLELKNNPIKCDCQFKWMDDFIRVTKFLSDHHISHDFDKVECADAQSSNLESFASAANELFSYKTKMTLLSKSEDFGLECAVKYSNPLKPLIYVLMLVCLSYL | not soluble |
| MGSDKIHHHHHHMQATDIATQQALAAALGVNRSAVTQAKNRDAIPQKWILQLARAYHLAPDWLEFGKGRQHQPPTSLHDPETVLVPRVKAVLSAGGGSLDVSGGVVENLPFRYDWLARRGHPAHMVLMNVTGDSMEPGIRHGDTLLIDQSHVTAQTGGVYAFGYEDSILVKRFGRDADAILLLSDNTAYAPIRIRGDEADLLHVIGKIVWLCRAVQ | not soluble |
| VVIRVLFRPVSLIPVNNSSTPQSQGPISRRLALTALGFGVLAPNVLVACAGKVTKLAEKRPPPAPRLTFRPADSAADVVPIAPISVEVGDGWFQRVALTNSAGKVVAGAYSRDRTIYTITEPLGYDTTYTWSGSAVGHDGKAVPVAGKFTTVAPVKTINAGFQLADGQTVGIAAPVIIQFDSPISDKAAVERALTVTTDPPVEGGWAWLPDEAQGARVHWRPREYYPAGTTVDVDAKLYGLPFGDGAYGAQDMSLHFQIGRRQVVKAEVSSHRIQVVTDAGVIMDFPCSYGEADLARNVTRNGIHVVTEKYSDFYMSNPAAGYSHIHERWAVRISNNGEFIHANPMSAGAQGNSNVTNGCINLSTENAEQYYRSAVYGDPVEVTGSSIQLSYADGDIWDWAVDWDTWVSMSALPPPAAKPAATQIPVTAPVTPSDAPTPSGTPTTTNGPGG | not soluble |
| MFVRICAMFGFVSDLLTAAVSSLDELLQDTPAHQIILGTAALYFLYNQYHNPSISRWYRSRNNASMKQRIIDSAYALAKNLPGVNQIIEKELNKELSSTREKLRIQRSGMTLREEIPEEGLSPQDILSAFDVDVEKCHFDFLSVTNDSPEREFLVERGDGKDSGALYAIHPKELTELLKEVYGATALTNPLHDKWPRINAMQAEVIRWCQNLFHGSKECYGLLTHGGTTSIIEAMAAYVIRARAKGIDYPEIVVPETAHAAFKKAAELTGAILITVPVDKKTGAVNPKVMSSYITRNTAVIVGSAPSFMNGIHDPVSELGQLAKKKNVPFHVDACLGGFLTAFLDTSSEPMDFRVPGVTSISADLHKYGCCPKGTSVCLFSEDSPALSVYAALNWSGGLYATPGILDGSTSGARVAEVYATLSYYGKNKYQEIAKSIITLRNAIQKELTTLLEEGNGLTSEDIYVYGNPQWSILGFRSNTCNAHFIADELEKRGWKLNLLQNPDGFHLCLTHVHTLVKGFETQFIKDLREAVIDVKNYPPGKKPSGNVKVYGAVGMMPIELQREICKQYQKARLNYTSASPGSLRIFTNVPVEEDEGLRNRKTEKYKV | not soluble |
| MSLEYIIKNGIVYDPLNGINGEKMDICVKDGKIVESVSDNAKVIDASGCVVMPGGIDSHSHVAGAKVNVGRIFRPEDSKREIYAKKGLRTGTGFSVPSTYKTGYQYSEMGYTTVIEAAMPPLIARHTHEEFMETPQIDKAAMPLFGNNWMVLEYLKEGDIKACAAFVAWLLKAVKGFAIKIVNPGGTEAWGWGKNVHSLDDPVPYFDITPREIVRGLAEVNELLGLPHSIHVHPNNLGHPGNWETTLETMKCVEGVEAKPRVGERETSYYNTHCQFHSYGGTSWKDFESKAIEIAEYVNKSKHVVIDVGQVTLDETTTMTADGPMEYDLHMTNGLKWANCDVELETGSGVVPFIYSPKGPVYAVQWAIGLELFLNTNTDKVLLTTDHPNAGPFTRYPRVIAWLMSKKYRDEWLYNKVHKWAQQRSHVADADKEYDLYEIAKITRANQAKVLGLSETKGHLGVGAEADIAIYAIDPEEKDGKKIEKAFRYAKYVLKGGEVVVKDGNVVKEVFGDTIYVDVQVGEDLMNEVLKDVGEKFRRYYSVNLENYPVSDEYANSWRVIKIDATDINEGHHHHHH | not soluble |
| MGGSHHHHHHGMASMTGGQQMGRDLYDDDDKDRWGSELEISMEQVSASIGNFTVDLFNKLNETNRDKNIFFSPWSISSALALTYLAAKGSTAREMAEVLHFEQAENIHSGFKELLTAFNKPRNNYSLRSANRIYVEKTYALLPTYLQLSKKYYKAEPQKVNFKTAPEQSRKEINTWVEKQTESKIKNLLSSDDVKATTRLILVNAIYFKAEWEVKFQAEKTSIQPFRLSKNKSKPVKMMYMRDTFPVLIMEKMNFKMIELPYVKRELSMFILLPDDIKDGTTGLEQLERELTYERLSEWADSKMMTETLVDLHLPKFSLEDRIDLRDTLRNMGMTTAFTTNADFRGMTDKKDLAISKVIHQSFVAVDEKGTEAAAATAVIISFTTSVINHVLKFKVDHPFHFFIRHNKSKTILFFGRFCCPVE | soluble |
| MLPVTYRLIPQSGVSTYRLNTADTPVFPDIPEHAPNPSRLRLAHDSLAINSEFRLEPECVVEYLISGAGGIDPDTEIDDDTYDECYDELSSVLQNAYTQSETFRRLMNYAYEKELHDVEQRWLLGAGEAFETTVAQEHFKLSEGRKVICLNLDDSDDSYTEHYESNEGRQLFDTKRSFIHEVVHALTHLQDKEENHPRGPVVEYTNIILKEMGHPSPPRMVYIFNK | not soluble |
| MGSDKIHHHHHHMKLAKFDTQPLPHFLMESATVDYAHADIRKLAAALSSDDSTATARHCFEWVRDHIEHSMDFHREEVTCAASDVLQQGTGLCTAKSHLLVALWRANQIPAGFCYQRLTLDGPNPPYCTHGFTAVWLNGRGWYRCDARGNSKPGIHCEFTPGQENLAFSSRYDGERTYPEVWAEPWPDLLTAMEKLQNISQYRSHPIDARPPAADLCVSESAAPNME | not soluble |
| MTPPPADDTSGKSGRRTELLDIAATLFAERGLRATTVRDIADAAGILSGSLYHHFDSKESMVDEILRGFLDDLFGKYREIVASGLDSRATLEALVTTSYEAIDASHSAVAIYQDEVKHLVANERFTYLSELNTEFRELWMGVLEAGVKDGSFRSDIDVELAFRFLRDTAWVAVRWYRPGGSVTVDTVAKQYLSIVLDGLASPHN | soluble |
| MAHHHHHHMGTLEAQTQGPGSMSAPLAEVDPDIAELLAKELGRQRDTLEMIASENFVPRAVLQAQGSVLTNKYAEGLPGRRYYGGCEHVDVVENLARDRAKALFGAEFANVQPHSGAQANAAVLHALMSPGERLLGLDLANGGHLTHGMRLNFSGKLYENGFYGVDPATHLIDMDAVRATALEFRPKVIIAGWSAYPRVLDFAAFRSIADEVGAKLLVDMAHFAGLVAAGLHPSPVPHADVVSTTVHKTLGGGRSGLIVGKQQYAKAINSAVFPGQQGGPLMHVIAGKAVALKIAATPEFADRQRRTLSGARIIADRLMAPDVAKAGVSVVSGGTDVHLVLVDLRDSPLDGQAAEDLLHEVGITVNRNAVPNDPRPPMVTSGLRIGTPALATRGFGDTEFTEVADIIATALATGSSVDVSALKDRATRLARAFPLYDGLEEWSLVGR | soluble |
